Data reported in US20230272056A1 (Merck Sharp & Dohme, published 2023).

Assays:
[1] = target: T1, human LAP-TGFB1 Fc fusion (human); experiment: SPR pH 6.0, antigen captured on Fab 54BLH
T1 construct: also called human LAP-TGFβ1-Fc; human LAP-TGFβ-Fc isoform 1
From the text: (§1) A Series S C1 sensor chip (Cytiva, catalog BR100535) was immobilized with low densities of high affinity Fab 54BLH on a Biacore T200 instrument with 1×HBS-EP+(Teknova, catalog H8022). This surface served as a monovalent capture surface for a low-density layer of heterodimer human LAP-TGFβ1 complex leaving the second binding site exposed for monovalent kinetic binding analysis with both mAbs and Fabs. Immobilized flow cell 1 served as the reference and flow cells 2, 3 and 4 were used to evaluate the binding interaction between human LAP-TGFβ1 and yeast display mutant mAbs and Fabs.
(§2) Approximately 15-25 RU of human LAP-TGFβ1-Fc was captured to the Fab capture surface followed by injection of 1:3 serially diluted Fabs and mAbs from 6 nM to 0.07 nM (Fabs: 54BLH, 55BLH, 60BLH, 63BLH, 64BLH-mAbs: 69BLH, 70BLH) and 1:3 serially diluted Fab and mAbs from 60 nM to 0.74 nM (Fabs: 59BLH, 66BLH, 67BLH—mAbs: 74BLH, 75BLH, 78BLH, 79BLH, 81BLH, 82BLH) including 0 nM. The binding data was double referenced by subtraction of signal from a reference flow cell and the 0 nM injections for evaluation of Fabs and mAbs respectively. Binding rate constants were calculated/determined by fitting the data with a 1:1 binding model (Cytiva Biacore T200 Evaluation software 3.0).

[2] = target: T1, human LAP-TGFB1 Fc fusion; experiment: SPR pH 7.4, antigen captured on Fab 54BLH
From the text: as §1, §2

[3] = target: T2, human LAP-TGFB3 Fc fusion (human); experiment: SPR pH 7.4
T2 construct: also called human LAP-TGFβ3; LAP-TGFβ isoform 3

[4] = target: T3, human LAP-TGFB2 Fc fusion (human); experiment: SPR pH 7.4
T3 construct: also called human LAP-TGFβ2; LAP-TGFβ isoform 2

[5] = target: T1, human LAP-TGFB1 Fc fusion; experiment: SPR pH 6.0, antigen-Fc captured, Fab analyte
Procedure: A Series S CM4 sensor chip (Cytiva, catalog BR100534) was immobilized with an anti-human Fc capture antibody following the kit protocol (Cytiva, catalog BR100839) on a Biacore T200 instrument with 1× HBS-EP+ (Teknova, catalog H8022). […] The binding data were double referenced by subtraction of signal from a reference (capture surface only) flow cell and the 0 nM Fab injection. Binding rate constants were determined by fitting the data with a 1:1 binding model (Cytiva Biacore T200 Evaluation software 3.0).

[6] = target: T1, human LAP-TGFB1 Fc fusion; experiment: SPR pH 7.4, antigen-Fc captured, Fab analyte
[7] = target: T1, human LAP-TGFB1 Fc fusion; experiment: SPR pH 7.4, antigen-Fc captured, Fab analyte; remark: listed apart in the source
[8] = target: T1, human LAP-TGFB1 Fc fusion; experiment: SPR

T3 sequence (chain, as listed by the source limits assumed): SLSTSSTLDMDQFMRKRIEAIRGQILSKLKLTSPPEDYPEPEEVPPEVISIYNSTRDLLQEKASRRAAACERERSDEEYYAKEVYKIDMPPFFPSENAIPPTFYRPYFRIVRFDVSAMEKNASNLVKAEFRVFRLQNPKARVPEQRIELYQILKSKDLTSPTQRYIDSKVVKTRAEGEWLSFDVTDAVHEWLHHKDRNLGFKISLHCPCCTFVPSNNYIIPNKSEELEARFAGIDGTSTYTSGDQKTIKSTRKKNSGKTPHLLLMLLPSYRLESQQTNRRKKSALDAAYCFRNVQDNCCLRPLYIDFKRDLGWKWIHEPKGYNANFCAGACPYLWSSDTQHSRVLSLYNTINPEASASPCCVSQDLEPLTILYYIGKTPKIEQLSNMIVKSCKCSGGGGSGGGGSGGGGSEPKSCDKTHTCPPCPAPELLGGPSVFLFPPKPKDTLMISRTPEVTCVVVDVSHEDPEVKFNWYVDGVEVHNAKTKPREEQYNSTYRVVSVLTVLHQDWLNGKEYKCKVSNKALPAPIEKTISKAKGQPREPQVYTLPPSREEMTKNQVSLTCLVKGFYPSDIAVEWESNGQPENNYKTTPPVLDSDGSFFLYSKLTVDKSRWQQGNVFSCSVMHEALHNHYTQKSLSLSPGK
T1 sequence (chain, as listed by the source limits assumed): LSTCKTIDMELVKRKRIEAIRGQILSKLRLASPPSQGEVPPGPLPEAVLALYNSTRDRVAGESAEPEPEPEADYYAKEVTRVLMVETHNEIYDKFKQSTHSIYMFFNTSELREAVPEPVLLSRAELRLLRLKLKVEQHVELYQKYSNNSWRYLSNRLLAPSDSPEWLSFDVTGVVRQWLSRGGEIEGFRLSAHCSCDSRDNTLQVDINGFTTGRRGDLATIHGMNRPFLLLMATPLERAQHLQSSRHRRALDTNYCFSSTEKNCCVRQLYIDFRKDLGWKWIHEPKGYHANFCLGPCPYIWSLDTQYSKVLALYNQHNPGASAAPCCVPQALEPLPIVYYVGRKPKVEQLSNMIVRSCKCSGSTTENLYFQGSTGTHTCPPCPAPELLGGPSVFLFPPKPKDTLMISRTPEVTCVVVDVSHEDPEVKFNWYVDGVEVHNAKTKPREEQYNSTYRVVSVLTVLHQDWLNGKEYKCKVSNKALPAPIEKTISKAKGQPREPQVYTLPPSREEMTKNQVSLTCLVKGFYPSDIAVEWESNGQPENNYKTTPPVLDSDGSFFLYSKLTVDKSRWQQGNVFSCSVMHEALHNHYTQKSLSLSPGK
T2 sequence (chain, as listed by the source limits assumed): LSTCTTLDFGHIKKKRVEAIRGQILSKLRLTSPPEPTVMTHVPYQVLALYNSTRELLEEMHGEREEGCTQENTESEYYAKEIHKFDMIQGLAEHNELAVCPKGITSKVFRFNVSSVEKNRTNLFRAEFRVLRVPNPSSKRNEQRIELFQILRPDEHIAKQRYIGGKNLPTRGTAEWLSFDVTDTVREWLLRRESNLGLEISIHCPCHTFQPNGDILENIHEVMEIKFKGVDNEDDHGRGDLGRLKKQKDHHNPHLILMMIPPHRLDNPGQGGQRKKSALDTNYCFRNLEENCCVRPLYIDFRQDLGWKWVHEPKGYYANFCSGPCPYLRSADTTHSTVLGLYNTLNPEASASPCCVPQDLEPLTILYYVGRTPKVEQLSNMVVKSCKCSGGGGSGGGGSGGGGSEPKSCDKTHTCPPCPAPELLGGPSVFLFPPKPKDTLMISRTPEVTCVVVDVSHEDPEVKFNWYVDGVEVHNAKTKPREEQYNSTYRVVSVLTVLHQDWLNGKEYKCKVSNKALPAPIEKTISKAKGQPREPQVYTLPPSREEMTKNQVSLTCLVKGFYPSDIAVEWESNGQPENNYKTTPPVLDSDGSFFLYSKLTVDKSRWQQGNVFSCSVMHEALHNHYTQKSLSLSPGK

Binder | Kd [1] [nM] | koff [1] [s⁻¹] | kon [1] [M⁻¹ s⁻¹] | Kd [2] [nM] | koff [2] [s⁻¹] | kon [2] [M⁻¹ s⁻¹] | binding result [3] | binding result [4] | Kd [5] [nM] | koff [5] [s⁻¹] | kon [5] [M⁻¹ s⁻¹] | Fold improvement in KD [6] [fold] | Kd [6] [nM] | koff [6] [s⁻¹] | kon [6] [M⁻¹ s⁻¹] | Kd [7] [nM] | koff [7] [s⁻¹] | kon [7] [M⁻¹ s⁻¹] | Fold change in KD from pH 7.4 to pH 6 [8] [fold]
64BLH (Fab, V domains shown, also called 16BLM Fab) VH: EVQLVQSGAEVKKPGASVKVSCKASGYTFTSYDMHWVRQAPGQGLEWMGRIDPQSGGIKYAQKFQGRATLTVDTSTSTAYMELSRLRSDDTAVYYCARWDYGGYFDVWGQGTLVTVSS VL: DIQMTQSPSSLSASVGDRVTITCRASQDIYNYLNWYQQKPGKAVKLLIYYTSVLETGVPSRFSGSGSGTDYTLTISSLQPEDFATYFCQQGDTLPWTFGQGTKLEIK | 0.182 | 0.00194 | 1.07e+07 | 0.062 | 0.000939 | 1.53e+07 | no binding (tested: 1000 nM Fab) | no binding (tested: 1000 nM Fab) | 0.024 | 0.000843 | 3.49e+07 | 760 | 0.077 | 0.0005 | 6.51e+06 | 0.077 | 0.0005 | 6.51e+06 | 0.3
68BLH (Fab, V domains shown, also called 20BLM Fab) VH: EVQLVQSGAEVKKPGASVKVSCKASGYTFTSYDMHWVRQAPGQGLEWMGRIDPQSGGEKYAQKFQGRATLTVDTSTSTAYMELSRLRSDDTAVYYCARYDYGGYFDVWGQGTLVTVSS VL: DIQMTQSPSSLSASVGDRVTITCRASQDIYNYLNWYQQKPGKAVKLLIYYTSRLETGVPSRFSGSGSGTDYTLTISSLQPEDFATYFCQQGDTLPWTFGQGTKLEIK |  |  |  |  |  |  | no binding (tested: 1000 nM Fab) | no binding (tested: 1000 nM Fab) | 0.508 | 0.00454 | 8.94e+06 | 134 | 0.438 | 0.00331 | 7.57e+06 | 0.438 | 0.00331 | 7.57e+06 | 1.2
57BLH (Fab, V domains shown, also called 09BLM Fab) VH: EVQLVQSGAEVKKPGASVKVSCKASGYTFTSYDMHWVRQAPGQGLEWMGRIDPISGGIKYAQKFQGRATLTVDTSTSTAYMELSRLRSDDTAVYYCARWDYGGYFDVWGQGTLVTVSS VL: DIQMTQSPSSLSASVGDRVTITCRASQDIFNYLNWYQQKPGKAVKLLIYYTSHLETGVPSRFSGSGSGTDYTLTISSLQPEDFATYFCQQGDTLPWTFGQGTKLEIK |  |  |  |  |  |  | no binding (tested: 1000 nM Fab) | no binding (tested: 1000 nM Fab) | 0.106 | 0.00159 | 1.54e+07 | 723 | 0.081 | 0.00049 | 6.06e+06 | 0.081 | 0.00049 | 6.06e+06 | 1.3
62BLH (Fab, V domains shown, also called 14BLM Fab) VH: EVQLVQSGAEVKKPGASVKVSCKASGYTFTSYDTHWVRQAPGQGLEWMGRIDPQSGGIKYAQKFQGRATLTVDTSTSTAYMELSRLRSDDTAVYYCARWDYGGYFDVWGQGTLVTVSS VL: DIQMTQSPSSLSASVGDRVTITCRASQDIYNYLNWYQQKPGKAVKLLIYYTSYLETGVPSRFSGSGSGTDYTLTISSLQPEDFATYFCQQGDTLPWTFGQGTKLEIK |  |  |  |  |  |  | no binding (tested: 1000 nM Fab) | no binding (tested: 1000 nM Fab) | 0.29 | 0.00168 | 5.8e+06 | 222 | 0.246 | 0.00124 | 4.69e+06 | 0.246 | 0.00124 | 4.69e+06 | 1.2
61BLH (Fab, V domains shown, also called 13BLM Fab) VH: EVQLVQSGAEVKKPGASVKVSCKASGYTFTSYDMHWVRQAPGQGLEWMGRIDPQTGDIKYAQKFQGRATLTVDTSTSTAYMELSRLRSDDTAVYYCARWDYGGQFDVWGQGTLVTVSS VL: DIQMTQSPSSLSASVGDRVTITCRASQDIYNYLNWYQQKPGKAVKLLIYYTSGLETGVPSRFSGSGSGTDYTLTISSLQPEDFATYFCQQGDTLPWTFGQGTKLEIK |  |  |  |  |  |  | no binding (tested: 1000 nM Fab) | no binding (tested: 1000 nM Fab) | 0.031 | 0.000121 | 3.91e+06 | 4500 | 0.013 | 4.52e-05 | 3.57e+06 | 0.013 | 4.52e-05 | 3.57e+06 | 2.4
54BLH (Fab, V domains shown, also called 06BLM Fab) VH: EVQLVQSGAEVKKPGASVKVSCKASGYTFTSYDMHWVRQAPGQGLEWMGRIDPQSGGIRYAQKFQGRATLTVDTSTSTAYMELSRLRSDDTAVYYCARWDYGGQFDVWGQGTLVTVSS VL: DIQMTQSPSSLSASVGDRVTITCRASQDIYNYLNWYQQKPGKAVKLLIYYTSILETGVPSRFSGSGSGTDYTLTISSLQPEDFATYFCQQGDTLPWTFGQGTKLEIK | 0.0217 | 0.000101 | 4.65e+06 | 0.00477 | 3.34e-05 | 7.03e+06 | no binding (tested: 1000 nM Fab) | no binding (tested: 1000 nM Fab) | 0.006 | 4.73e-05 | 7.56e+06 | 14600 | 0.004 | 2.07e-05 | 4.96e+06 | 0.004 | 2.07e-05 | 4.96e+06 | 1.5
56BLH (Fab, V domains shown, also called 08BLM Fab) VH: EVQLVQSGAEVKKPGASVKVSCKASGYTFTSYDMHWVRQAPGQGLEWMGRIDPQSGGTKYAQKFQGRATLTVDTSTSTAYMELSRLRSDDTAVYYCARWDYGGQFDVWGQGTLVTVSS VL: DIQMTQSPSSLSASVGDRVTITCRASQDIYNYLNWYQQKPGKAVKLLIYYTSGLETGVPSRFSGSGSGTDYTLTISSLQPEDFATYFCQQGDTLPWTFGQGTKLEIK |  |  |  |  |  |  | no binding (tested: 1000 nM Fab) | no binding (tested: 1000 nM Fab) | 0.01 | 5.56e-05 | 5.55e+06 | 9760 | 0.006 | 2.57e-05 | 4.53e+06 | 0.006 | 2.57e-05 | 4.53e+06 | 1.7
58BLH (Fab, V domains shown, also called 10BLM Fab) VH: EVQLVQSGAEVKKPGASVKVSCKASGYTFTSYDMHWVRQAPGQGLEWMGRIDPQSGGTKYAQKFQGRATLTVDTSTSTAYMELSRLRSDDTAVYYCARWDYGGYFDVWGQGTLVTVSS VL: DIQMTQSPSSLSASVGDRVTITCRASQDIYNYLNWYQQKPGKAVKLLIYYTSVLETGVPSRFSGSGSGTDYTLTISSLQPEDFATYFCQQGDTLPWTFGQGTKLEIK |  |  |  |  |  |  | no binding (tested: 1000 nM Fab) | no binding (tested: 1000 nM Fab) | 0.086 | 0.000591 | 6.88e+06 | 1100 | 0.053 | 0.000313 | 5.93e+06 | 0.053 | 0.000313 | 5.93e+06 | 1.6
